Assay results from publication PMC10280071, “Allelic variation in the indoleacetic acid-lysine synthase gene of the bacterial pathogen Pseudomonas savastanoi and its role in auxin production” (Frontiers in Plant Science, 2023).

Columns and labels:
[1] = system: T1, IaaLPsf-3; assay: coupled continuous spectrophotometric assay of AMP formation (myokinase/pyruvate kinase/lactate dehydrogenase, NADH at […] nm); format: biochemical, Pseudomonas savastanoi; conditions: 1 mM ATP, 3 mM MgCl2, 100 mM KCl, 50 mM Tris-HCl pH 8.0, 25 °C
T1 construct: wild-type full-length ORF in pET28a, His6-tagged (C-terminal in methods, N-terminal in results), tag not cut, E. coli BL21

[2] = system: O=C(O)Cc1c[nH]c2ccccc12; assay: purified protein; conditions: 5 mM lysine fixed, IAA 0.05-10 mM, 1 mM ATP, 3 mM MgCl2, 100 mM KCl, 50 mM Tris-HCl pH 8.0, 25 °C

O=C(O)Cc1c[nH]c2ccccc12 [IAA]
Km ([1]; 5 mM lysine fixed, IAA 0.05-10 mM): 836 ± 142 µM

NCCCC[C@H](N)C(=O)O [Lys]
Km ([1]; 1 mM IAA fixed, lysine 0.01-10 mM): 320 ± 45 µM

IaaLPsn-1 (Pseudomonas savastanoi pv. nerii)
Km [2]: 617 ± 158 µM
Vmax [2]: 0.0106 µmol/min/mg
Vmax/Km [2]: 17.2 µL/min/mg
